{"source": "patent US20190211096A1", "key": {"[1]": {"biological_target": "human AMH of serum samples (human) (UniProt P03971)", "sequence (P03971 25-560 limits assumed)": "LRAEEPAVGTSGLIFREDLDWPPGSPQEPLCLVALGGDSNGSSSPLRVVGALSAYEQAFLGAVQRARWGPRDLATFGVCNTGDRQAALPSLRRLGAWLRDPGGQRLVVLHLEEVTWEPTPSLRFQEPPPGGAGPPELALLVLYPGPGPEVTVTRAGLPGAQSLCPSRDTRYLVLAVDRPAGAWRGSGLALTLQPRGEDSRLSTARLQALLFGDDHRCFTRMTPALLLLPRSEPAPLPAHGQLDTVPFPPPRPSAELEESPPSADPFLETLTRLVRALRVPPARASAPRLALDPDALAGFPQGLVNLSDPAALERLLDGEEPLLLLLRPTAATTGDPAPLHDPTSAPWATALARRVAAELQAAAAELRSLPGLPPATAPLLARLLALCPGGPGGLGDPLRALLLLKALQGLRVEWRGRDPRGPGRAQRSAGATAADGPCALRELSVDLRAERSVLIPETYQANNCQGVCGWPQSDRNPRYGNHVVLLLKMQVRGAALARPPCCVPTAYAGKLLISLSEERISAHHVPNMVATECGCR", "test": "VIDAS sandwich, detection AA011 conjugate 500 ng/ml, AMH 4 ng/ml"}, "[2]": {"biological_target": "human AMH of serum samples (human) (UniProt P03971)", "test": "VIDAS sandwich, detection AA011 conjugate 500 ng/ml, AMH 0.055 ng/ml"}, "[3]": {"biological_target": "human AMH of serum samples (human) (UniProt P03971)", "test": "VIDAS sandwich, detection AA011 conjugate 500 ng/ml, AMH 0.9 ng/ml"}, "[4]": {"biological_target": "human AMH of serum samples (human) (UniProt P03971)", "test": "VIDAS sandwich, detection AA011 conjugate 500 ng/ml, AMH 0.11 ng/ml"}, "[5]": {"biological_target": "human AMH of serum samples (human) (UniProt P03971)", "test": "VIDAS sandwich, detection AA011 conjugate 500 ng/ml, AMH 11 ng/ml"}, "[6]": {"biological_target": "human AMH of serum samples (human) (UniProt P03971)", "test": "VIDAS sandwich, detection AA011 conjugate 500 ng/ml, AMH 8.7 ng/ml"}, "[7]": {"biological_target": "human AMH of serum samples (human) (UniProt P03971)", "test": "VIDAS sandwich, detection AA011 conjugate 500 ng/ml, AMH 6.3 ng/ml"}, "[8]": {"biological_target": "human AMH of serum samples (human) (UniProt P03971)", "test": "VIDAS sandwich, detection AA011 conjugate 500 ng/ml, AMH 2.1 ng/ml"}, "[9]": {"biological_target": "human AMH of serum samples (human) (UniProt P03971)", "test": "VIDAS sandwich, detection AA011 conjugate 500 ng/ml, AMH 0.275 ng/ml"}}, "data": [{"substance": "AA012 commercial anti-AMH antibody (AnshLabs)", "values": [{"measurement": "S/N (VIDAS RFV/RFV0)", "setting": "[1]", "value": 65}, {"measurement": "VIDAS RFV Signal", "setting": "[1]", "value": 2940, "unit": "RFV"}, {"measurement": "S/N (VIDAS RFV/RFV0)", "setting": "[2]", "value": 2}, {"measurement": "VIDAS RFV Signal", "setting": "[2]", "value": 81, "unit": "RFV"}, {"measurement": "S/N (VIDAS RFV/RFV0)", "setting": "[3]", "value": 16}, {"measurement": "VIDAS RFV Signal", "setting": "[3]", "value": 735, "unit": "RFV"}, {"measurement": "S/N (VIDAS RFV/RFV0)", "setting": "[4]", "value": 3}, {"measurement": "VIDAS RFV Signal", "setting": "[4]", "value": 113, "unit": "RFV"}, {"measurement": "S/N (VIDAS RFV/RFV0)", "setting": "[5]", "value": 120}, {"measurement": "VIDAS RFV Signal", "setting": "[5]", "value": 5390, "unit": "RFV"}, {"measurement": "S/N (VIDAS RFV/RFV0)", "setting": "[6]", "value": 107}, {"measurement": "VIDAS RFV Signal", "setting": "[6]", "value": 4810, "unit": "RFV"}, {"measurement": "S/N (VIDAS RFV/RFV0)", "setting": "[7]", "value": 87}, {"measurement": "VIDAS RFV Signal", "setting": "[7]", "value": 3920, "unit": "RFV"}, {"measurement": "S/N (VIDAS RFV/RFV0)", "setting": "[8]", "value": 36}, {"measurement": "VIDAS RFV Signal", "setting": "[8]", "value": 1600, "unit": "RFV"}, {"measurement": "S/N (VIDAS RFV/RFV0)", "setting": "[9]", "value": 5}, {"measurement": "VIDAS RFV Signal", "setting": "[9]", "value": 209, "unit": "RFV"}]}]}
